From patent publication US20100292083A1 (Ablynx, published 2010)
Substitutions are numbered along the chain they refer to.

Biological target: T1, human IL6R (human, UniProt P08887 20-358, limits assumed)
T1 construct: Antigen of the Biacore experiments
T1 sequence (looked up): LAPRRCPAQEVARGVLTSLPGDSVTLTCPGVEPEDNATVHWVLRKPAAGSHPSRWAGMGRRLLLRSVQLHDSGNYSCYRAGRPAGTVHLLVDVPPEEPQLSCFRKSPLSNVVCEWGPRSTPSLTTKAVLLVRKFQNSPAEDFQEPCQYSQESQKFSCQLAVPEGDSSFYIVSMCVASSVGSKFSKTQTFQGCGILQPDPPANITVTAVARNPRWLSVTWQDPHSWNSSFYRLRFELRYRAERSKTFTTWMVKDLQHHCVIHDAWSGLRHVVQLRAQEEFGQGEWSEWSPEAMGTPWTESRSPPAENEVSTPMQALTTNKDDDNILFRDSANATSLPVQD
Experiment: SPR (Biacore), periplasmic extract
Protocol: Selection outputs were analyzed by picking individual colonies and growing them overnight in 1 ml 2×YT (Yeast Tryptone) medium+100 ug/ml Carbenicillin at 37 C. Nanobody containing periplasmic extracts were prepared, diluted 1/10 in PBS and subsequently tested for antigen binding in ELISA. Clones with the highest ELISA signals were sequenced and analyzed on Biacore. […] The off-rate of the best clone from the CDR3 library was 7×10e-4 s-1.

B1: IL6R65PMP10A11 (VHH)
VHH: EVQLVESGGGLVQPGGSLRLSCAASGSIFKVNAMGWYRQAPGKGRELVAGIISGGSTNYADSVKGRFTISRDNAKNTLYLQMNSLRPEDTAVYYCAFIASNSEYDLGRRFWGQGTLVTVSS
notes: CDR3 library clone
koff: 0.001 s⁻¹

B2: IL6R65PMP11E4 (VHH)
VHH: EVQLVESGGGLVQPGGSLRLTCAASGTIFKVNVMAWYRQAPGKGRELVAAIITGGSTSYADSVKGRFTISRDNAKNTLYLQMNSLRPEDTAVYYCAFVTTNSDYDLGRDYWGQGTLVTVSS
koff: 0.00023 s⁻¹

B3: IL6R65PMP19H7 (VHH)
VHH: B1 VHH with A99T, S100A, N101D, S102T, R108K
notes: CDR3 library clone
koff: 0.0011 s⁻¹

B4: IL6R65PMP11D6 (VHH)
VHH: B2 VHH with T21S, I28T, V31I, T53S, S58P
koff: 0.00068 s⁻¹

B5: IL6R65PMP11F10 (VHH)
VHH: B2 VHH with T21S, I28T, V31L, V33I, I51V, T53N, S56T, S58T
koff: 0.0013 s⁻¹

B6: IL6R65PMP11A12 (VHH)
VHH: B2 VHH with T21S, K30R, A50G, G54N
koff: 0.00012 s⁻¹

B7: IL6R65PMP11F3 (VHH)
VHH: B2 VHH with T21S, K30R, V31I, T53S, S58T
koff: 0.00048 s⁻¹

B8: IL6R65PMP11G11 (VHH)
VHH: B2 VHH with T21S, I28T, V31I, G54S, S56T
koff: 0.0005 s⁻¹

B9: IL6R65PMP11H4 (VHH)
VHH: B2 VHH with T21S, T27S, I28T, K30R, V31L, G54N, S56T, S58T
koff: 0.0008 s⁻¹

B10: IL6R65PMP13A2 (VHH)
VHH: B2 VHH with T21S, K30R, G54D, S56T, S58T
koff: 0.00061 s⁻¹

B11: IL6R65PMP18B1 (VHH)
VHH: B1 VHH with A99T, S100A, N101D, S102T, E103D, R108K, F110Y
notes: CDR3 library clone
koff: 0.00072 s⁻¹

B12: IL6R65PMP13B3 (VHH)
VHH: B2 VHH with R19H, T21S, V31I, G54D, S58T
koff: 0.00076 s⁻¹

B13: IL6R65PMP11D12 (VHH)
VHH: B2 VHH with T21S, V31I, V33I, T53N, G54S
koff: 0.00058 s⁻¹

B14: IL6R65PMP13H4 (VHH)
VHH: B2 VHH with T21S, T27S, I28A, A50G, I51V, G54D, S58N
koff: 0.00052 s⁻¹

B15: IL6R65PMP12E1 (VHH)
VHH: EVQLVESGGGLVQPGGSLRLSCAANGSVYKVNAMAWYRQAPGKGRELVAGIVTGGTSNYADSVKGRFTISRDNAKNTLYLQMNSLRPEDTAVYYCAFVTTNSDYDLGRDYWGQGTLVTVSS
koff: 0.00026 s⁻¹

B16: IL6R65PMP12C8 (VHH)
VHH: B15 VHH with N25S, S27T, Y29F, V31I, I51L, T53S, G54A, S57A
koff: 0.00066 s⁻¹

B17: IL6R65PMP11E9 (VHH)
VHH: B2 VHH with T21S, I28T, V31I, S56T, S58T
koff: 0.00035 s⁻¹

B18: IL6R65PMP11G10 (VHH)
VHH: B2 VHH with T21S, T27S, I28T, K30R, V31I, A50G, G54N, S56T, S58T
koff: 0.00021 s⁻¹

B19: IL6R65PMP16H6 (VHH)
VHH: B15 VHH with N25S, Y29F, K30R, V31I, I51F, T56S
koff: 0.00032 s⁻¹

B20: IL6R65PMP11D11 (VHH)
VHH: B15 VHH with N25S, V28T, Y29F, V31I, A33I, I51V, V52I, T56N, S57T
koff: 0.00039 s⁻¹

B21: IL6R65PMP11F1 (VHH)
VHH: B2 VHH with S17T, T21S, T27S, I28T, V31I, A50G, I51V, G54N, S58T
koff: 0.00037 s⁻¹

B22: IL6R65PMP11G7 (VHH)
VHH: B2 VHH with T21S, V31L, S56T, S58T
koff: 0.00036 s⁻¹

B23: IL6R65PMP11E5 (VHH)
VHH: EVQLVESGGGLVQPGGSLRLSCAASGSTFRINIMAWYRQAPGKGRELVAGVITSGNTTYADSVKGRFTISRDNAKNTLYLQMNSLRPEDTAVYYCAFVTTNSDYDLGRDYWGQGTLVTVSS
koff: 0.00048 s⁻¹

B24: IL6R65PMP13A4 (VHH)
VHH: B23 VHH with S27T, I31L, I33V, G50A, V51I, N56T
koff: 0.00072 s⁻¹

B25: IL6R65PMP11H2 (VHH)
VHH: B2 VHH with T21S, T27S, V31I, T53N, S56T
koff: 0.0003 s⁻¹

B26: IL6R65PMP13D3 (VHH)
VHH: B15 VHH with S27T, V28T, Y29F, A33V, I51V, V52I, S57T
koff: 0.00048 s⁻¹

B27: IL6R65PMP11C4 (VHH)
VHH: B2 VHH with T21S, V31I, A50G, G54N, S58T
koff: 0.00031 s⁻¹

B28: IL6R65PMP13A11 (VHH)
VHH: B15 VHH with N25S, S27T, Y29F, I51V, V52I, T53S, G54A, T56S, S57A
koff: 0.00083 s⁻¹

B29: IL6R65PMP12C7 (VHH)
VHH: B23 VHH with T28V, F29Y, I33A, A35G, V51L, T53S, S54A, N56S, T58N
koff: 0.00091 s⁻¹

B30: IL6R65PMP11E2 (VHH)
VHH: B2 VHH with T21S, I28T, V33I
koff: 0.00068 s⁻¹

B31: IL6R65PMP18G7 (VHH)
VHH: B2 VHH with T21S, I28T, A50G, S58T
koff: 0.0003 s⁻¹

B32: IL6R65PMP18E11 (VHH)
VHH: B23 VHH with S27T, I33V, V51I, S54N, N56S, T58S
koff: 0.00027 s⁻¹

B33: IL6R65PMP13F10 (VHH)
VHH: B23 VHH with T28V, R30K, I33A, A35G, V51L, T53S, S54A, N56S, T58N
koff: 0.0011 s⁻¹

B34: IL6R65PMP11B4 (VHH)
VHH: B2 VHH with T21S, T27S, V31I, T53N, S56T
koff: 0.00028 s⁻¹

B35: IL6R65PMP11F12 (VHH)
VHH: B2 VHH with T21S, I28T, K30R, T53S, S58T
koff: 0.00067 s⁻¹

B36: IL6R65PMP13B2 (VHH)
VHH: B2 VHH with T21S, I28T, V33I, G54N, S58T
koff: 0.0014 s⁻¹

B37: IL6R65PMP11D4 (VHH)
VHH: B23 VHH with S27T, R30K, T53N, N56T, T58N
koff: 0.001 s⁻¹

B38: IL6R65PMP13D2 (VHH)
VHH: B2 VHH with T21S, I28T, T53N, G54D, S58T
koff: 0.0011 s⁻¹

B39: IL6R65PMP11H10 (VHH)
VHH: B2 VHH with I28T, I51V, T53N, S56T
koff: 0.00043 s⁻¹

B40: IL6R65PMP13G5 (VHH)
VHH: B2 VHH with T21S, V31I, V33I, T53N, G54S
koff: 0.00069 s⁻¹

B41: IL6R65PMP11D3 (VHH)
VHH: B23 VHH with T28I, R30K, I31L, I33V, S54G, T58S
koff: 0.00031 s⁻¹

B42: IL6R65PMP11E11 (VHH)
VHH: B23 VHH with S27T, R30K, I33V, E46K, G50A, V51I, T53N, S54N
koff: 0.00049 s⁻¹

B43: IL6R65PMP18G12 (VHH)
VHH: B2 VHH with T21S, T27S, V31I, T53N, G54S, S56T
koff: 0.00034 s⁻¹

B44: IL6R65PMP13F3 (VHH)
VHH: B2 VHH with T21S, I28T, V31I, S56T, S58T
koff: 0.00046 s⁻¹

B45: IL6R65PMP18G8 (VHH)
VHH: B23 VHH with S27T, R30K, I33V, V51I, S54G, N56T
koff: 0.00023 s⁻¹

B46: IL6R65PMP13F5 (VHH)
VHH: B23 VHH with S27T, I33V, V51I, S54N, N56S, T58S
koff: 0.00037 s⁻¹

B47: IL6R65PMP19H2 (VHH)
VHH: B1 VHH with A99T, S100A, N101D, S102T, E103D, R108K, F110Y
notes: CDR3 library clone
koff: 0.00074 s⁻¹

B48: IL6R65PMP19A4 (VHH)
VHH: B1 VHH with A99T, S100T, N101D, S102T, E103N, R108K, F110S
notes: CDR3 library clone
koff: 0.00089 s⁻¹

B49: IL6R65PMP11C7 (VHH)
VHH: B2 VHH with T21S, V33I, G54S, S56T, S58T
koff: 0.00085 s⁻¹

B50: IL6R65PMP18G11 (VHH)
VHH: B2 VHH with T21S, T27S, V31I, T53N, S56T
koff: 0.00033 s⁻¹
